Assay results reported in US20100227414A1, “Affinity capture mass spectroscopy with a porous silicon biosensor” (Trex Enterprises Corp., priority 2009, published 2010).

Target: extra-cellular receptor for interleukin 34 (Homo sapiens, UniProt P07333)
Assay: NPOI flow cell label-free binding with fraction collection (AC-MS)
Text: The first embodiment is sketched in FIG. 3. The NPOI flow cell instrument is used together with a fraction collector. This fraction collector could simply be a collection vessel of some sort. Initially capture molecule is placed on the porous silicon chip using a typical flow cell procedure. A carboxyl chip shown at 214 in FIG. 2, used for amino coupling, is used. This contains both a sample and reference channel 220 and 221. Using the AutoPrep 200 and two 6-port, 2-position injection valves, one for the sample 210 and one for the reference 211, solutions are introduced to the flow cell. Initially the chip is activated using water as running buffer, pumped by two separate pumps one for sample 212 and one for reference 213, at 8 μL/min. A solution of 200 mM, 1-ethyl-3-(3-dimethylaminopropyl) carbodiimide (EDC) and 50 mM sufo N-hydroxysuccinimide (sNHS) is used to activate the chip for 8 minutes. Then a solution of 20 μg/mL capture molecule is introduced in pH 5.0, 40 mM acetate buffer (1-1,000 μg/mL concentration may also be used). […] The chip is now ready for binding. […]
A specific example of such an approach is shown in FIG. 8 which is a print of a monitor display showing Mascot Search Results. […] The resulting data was analyzed using Mascot and a customized human protein database (810) show the successful identification of IL34.

extra-cellular receptor for interleukin 34, sequence (P07333 20-517 limits assumed): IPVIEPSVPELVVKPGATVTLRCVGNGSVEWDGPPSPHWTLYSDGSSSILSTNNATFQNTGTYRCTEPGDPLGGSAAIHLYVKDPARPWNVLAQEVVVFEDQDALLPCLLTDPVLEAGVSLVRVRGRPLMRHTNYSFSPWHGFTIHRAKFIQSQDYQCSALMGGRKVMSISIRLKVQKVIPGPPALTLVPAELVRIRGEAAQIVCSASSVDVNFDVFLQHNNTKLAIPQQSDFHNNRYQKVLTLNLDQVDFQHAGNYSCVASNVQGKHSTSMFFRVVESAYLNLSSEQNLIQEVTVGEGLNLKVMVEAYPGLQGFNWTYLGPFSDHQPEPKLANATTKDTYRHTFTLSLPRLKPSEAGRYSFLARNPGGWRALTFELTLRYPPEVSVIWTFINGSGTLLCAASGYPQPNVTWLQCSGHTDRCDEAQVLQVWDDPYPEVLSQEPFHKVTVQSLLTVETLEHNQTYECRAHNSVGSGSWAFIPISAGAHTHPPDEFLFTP

B1: Interleukin 34 (protein, UniProt Q6ZMJ4 21-242, looked up)
Interleukin-34: NEPLEMWPLTQNEECTVTGFLRDKLQYRSRLQYMKHYFPINYKISVPYEGVFRIANVTRLQRAQVSERELRYLWVLVSLSATESVQDVLLEGHPSWKYLQEVETLLLNVQQGLTDVEVSPKVESVLSLLNAPGPNLKLVRPKALLDNCFRVMELLYCSCCKQSSVLNWQDCEVPSPQSCSPEPSLQYAATQLYPPPPWSPSSPPHSTGSVRPVRAQGEGLLP
notes: Interleukin 34 (the analyte) doped into spent cell culture media
change in OPD (label-free binding signal) (IL34 100 ng/mL in spent cell culture media, 50 μL, between 0 and 240 seconds, receptor immobilized at 100 μg/mL): 0.7 nm
amount captured on chip corresponding to OPD change (almost complete capture of the material introduced): 5 ng
